From the Human Domainome abundance scans (Beltran et al. 2025)
± gives the uncertainty stated by the source.

assay: abundance fitness (aPCA) (normalised: wild type 0, dead -1); higher = more abundant; growth selection in yeast, the domain comes from the species named; conditions: Homo sapiens

| Substance | abundance fitness |
| --- | --- |
| Lipoamide acyltransferase component of branched-chain alpha-keto acid dehydrogenase complex, mitochondrial V192S, P11182 | -0.041 ± 0.053 |
| Lipoamide acyltransferase component of branched-chain alpha-keto acid dehydrogenase complex, mitochondrial R179T, P11182 | -0.304 ± 0.091 |
| Lipoamide acyltransferase component of branched-chain alpha-keto acid dehydrogenase complex, mitochondrial G193L, P11182 | -0.863 ± 0.061 |
| Lipoamide acyltransferase component of branched-chain alpha-keto acid dehydrogenase complex, mitochondrial L209R, P11182 | 0.006 ± 0.036 |
| Lipoamide acyltransferase component of branched-chain alpha-keto acid dehydrogenase complex, mitochondrial N185Q, P11182 | -0.155 ± 0.11 |
| Lipoamide acyltransferase component of branched-chain alpha-keto acid dehydrogenase complex, mitochondrial I205M, P11182 | -0.28 ± 0.054 |
| Lipoamide acyltransferase component of branched-chain alpha-keto acid dehydrogenase complex, mitochondrial V191K, P11182 | -0.653 ± 0.045 |
| Lipoamide acyltransferase component of branched-chain alpha-keto acid dehydrogenase complex, mitochondrial I205T, P11182 | -0.337 ± 0.057 |
| Lipoamide acyltransferase component of branched-chain alpha-keto acid dehydrogenase complex, mitochondrial I205W, P11182 | -0.629 ± 0.056 |
| Lipoamide acyltransferase component of branched-chain alpha-keto acid dehydrogenase complex, mitochondrial G193Q, P11182 | -0.573 ± 0.061 |
| Lipoamide acyltransferase component of branched-chain alpha-keto acid dehydrogenase complex, mitochondrial L206G, P11182 | -0.149 ± 0.033 |
| Lipoamide acyltransferase component of branched-chain alpha-keto acid dehydrogenase complex, mitochondrial S189Q, P11182 | -0.097 ± 0.054 |
| Lipoamide acyltransferase component of branched-chain alpha-keto acid dehydrogenase complex, mitochondrial L180V, P11182 | -0.222 ± 0.039 |
| Lipoamide acyltransferase component of branched-chain alpha-keto acid dehydrogenase complex, mitochondrial R179M, P11182 | -0.087 ± 0.055 |
| Lipoamide acyltransferase component of branched-chain alpha-keto acid dehydrogenase complex, mitochondrial R179G, P11182 | -0.257 ± 0.038 |
| Lipoamide acyltransferase component of branched-chain alpha-keto acid dehydrogenase complex, mitochondrial T174W, P11182 | -0.787 ± 0.045 |
| Lipoamide acyltransferase component of branched-chain alpha-keto acid dehydrogenase complex, mitochondrial A176G, P11182 | -0.074 ± 0.038 |
| Lipoamide acyltransferase component of branched-chain alpha-keto acid dehydrogenase complex, mitochondrial D204C, P11182 | -1.27 ± 0.098 |
| Lipoamide acyltransferase component of branched-chain alpha-keto acid dehydrogenase complex, mitochondrial L188F, P11182 | 0.116 ± 0.39 |
| Lipoamide acyltransferase component of branched-chain alpha-keto acid dehydrogenase complex, mitochondrial V177L, P11182 | -0.321 ± 0.04 |
| Lipoamide acyltransferase component of branched-chain alpha-keto acid dehydrogenase complex, mitochondrial R179P, P11182 | -1.11 ± 0.085 |
| Lipoamide acyltransferase component of branched-chain alpha-keto acid dehydrogenase complex, mitochondrial G193C, P11182 | -0.647 ± 0.059 |
| Lipoamide acyltransferase component of branched-chain alpha-keto acid dehydrogenase complex, mitochondrial T171R, P11182 | -0.578 ± 0.058 |
| Lipoamide acyltransferase component of branched-chain alpha-keto acid dehydrogenase complex, mitochondrial V177G, P11182 | -0.289 ± 0.038 |
| Lipoamide acyltransferase component of branched-chain alpha-keto acid dehydrogenase complex, mitochondrial S189G, P11182 | -0.065 ± 0.039 |

| Substance | abundance fitness |
| --- | --- |
| Lipoamide acyltransferase component of branched-chain alpha-keto acid dehydrogenase complex, mitochondrial L172F, P11182 | -0.195 ± 0.085 |
| Lipoamide acyltransferase component of branched-chain alpha-keto acid dehydrogenase complex, mitochondrial K202Q, P11182 | -0.088 ± 0.049 |
| Lipoamide acyltransferase component of branched-chain alpha-keto acid dehydrogenase complex, mitochondrial G195E, P11182 | -0.639 ± 0.073 |
| Lipoamide acyltransferase component of branched-chain alpha-keto acid dehydrogenase complex, mitochondrial K202A, P11182 | 0.039 ± 0.042 |
| Lipoamide acyltransferase component of branched-chain alpha-keto acid dehydrogenase complex, mitochondrial V192A, P11182 | -0.009 ± 0.045 |
| Lipoamide acyltransferase component of branched-chain alpha-keto acid dehydrogenase complex, mitochondrial N184W, P11182 | -0.179 ± 0.1 |
| Lipoamide acyltransferase component of branched-chain alpha-keto acid dehydrogenase complex, mitochondrial G193V, P11182 | -0.814 ± 0.05 |
| Lipoamide acyltransferase component of branched-chain alpha-keto acid dehydrogenase complex, mitochondrial L201W, P11182 | -0.683 ± 0.052 |
| Lipoamide acyltransferase component of branched-chain alpha-keto acid dehydrogenase complex, mitochondrial Y208D, P11182 | -0.213 ± 0.06 |
| Lipoamide acyltransferase component of branched-chain alpha-keto acid dehydrogenase complex, mitochondrial E203P, P11182 | -0.173 ± 0.059 |
| Lipoamide acyltransferase component of branched-chain alpha-keto acid dehydrogenase complex, mitochondrial R199P, P11182 | -0.784 ± 0.079 |
| Lipoamide acyltransferase component of branched-chain alpha-keto acid dehydrogenase complex, mitochondrial T213M, P11182 | -0.122 ± 0.097 |
| Lipoamide acyltransferase component of branched-chain alpha-keto acid dehydrogenase complex, mitochondrial R179S, P11182 | -0.212 ± 0.057 |
| Lipoamide acyltransferase component of branched-chain alpha-keto acid dehydrogenase complex, mitochondrial T171E, P11182 | -0.268 ± 0.058 |
| Lipoamide acyltransferase component of branched-chain alpha-keto acid dehydrogenase complex, mitochondrial Y208M, P11182 | 0.012 ± 0.052 |
| Lipoamide acyltransferase component of branched-chain alpha-keto acid dehydrogenase complex, mitochondrial V177N, P11182 | -0.742 ± 0.26 |
| Lipoamide acyltransferase component of branched-chain alpha-keto acid dehydrogenase complex, mitochondrial P175G, P11182 | -0.268 ± 0.035 |
| Lipoamide acyltransferase component of branched-chain alpha-keto acid dehydrogenase complex, mitochondrial L172I, P11182 | -0.047 ± 0.066 |
| Lipoamide acyltransferase component of branched-chain alpha-keto acid dehydrogenase complex, mitochondrial Y208N, P11182 | -0.162 ± 0.061 |
| Lipoamide acyltransferase component of branched-chain alpha-keto acid dehydrogenase complex, mitochondrial E190F, P11182 | -0.448 ± 0.076 |
| Lipoamide acyltransferase component of branched-chain alpha-keto acid dehydrogenase complex, mitochondrial G193W, P11182 | -1.06 ± 0.18 |
| Nanos homolog 2 S77R, P60321 | -0.003 ± 0.069 |
| Lipoamide acyltransferase component of branched-chain alpha-keto acid dehydrogenase complex, mitochondrial A173M, P11182 | -0.135 ± 0.057 |
| Lipoamide acyltransferase component of branched-chain alpha-keto acid dehydrogenase complex, mitochondrial S194C, P11182 | -0.47 ± 0.045 |
